Results from the supplement of paper PMC10065799, “High-throughput profiling of sequence recognition by tyrosine kinases and SH2 domains using bacterial peptide display” (eLife, 2023).

Key:
Hck = Hck (UniProt P08631); assay: phosphorylation enrichment, bacterial display (enrichment ratio); higher = better substrate or ligand; peptides without Tyr show the background
c-Src = assay: as above
Jak2 = Jak2 (UniProt O60674); assay: as above
Fyn = Fyn (UniProt P06241); assay: as above
EPHB2 = EPHB2 (UniProt P29323); assay: as above
Chain of EPHB2 (P29323 whole entry, looked up): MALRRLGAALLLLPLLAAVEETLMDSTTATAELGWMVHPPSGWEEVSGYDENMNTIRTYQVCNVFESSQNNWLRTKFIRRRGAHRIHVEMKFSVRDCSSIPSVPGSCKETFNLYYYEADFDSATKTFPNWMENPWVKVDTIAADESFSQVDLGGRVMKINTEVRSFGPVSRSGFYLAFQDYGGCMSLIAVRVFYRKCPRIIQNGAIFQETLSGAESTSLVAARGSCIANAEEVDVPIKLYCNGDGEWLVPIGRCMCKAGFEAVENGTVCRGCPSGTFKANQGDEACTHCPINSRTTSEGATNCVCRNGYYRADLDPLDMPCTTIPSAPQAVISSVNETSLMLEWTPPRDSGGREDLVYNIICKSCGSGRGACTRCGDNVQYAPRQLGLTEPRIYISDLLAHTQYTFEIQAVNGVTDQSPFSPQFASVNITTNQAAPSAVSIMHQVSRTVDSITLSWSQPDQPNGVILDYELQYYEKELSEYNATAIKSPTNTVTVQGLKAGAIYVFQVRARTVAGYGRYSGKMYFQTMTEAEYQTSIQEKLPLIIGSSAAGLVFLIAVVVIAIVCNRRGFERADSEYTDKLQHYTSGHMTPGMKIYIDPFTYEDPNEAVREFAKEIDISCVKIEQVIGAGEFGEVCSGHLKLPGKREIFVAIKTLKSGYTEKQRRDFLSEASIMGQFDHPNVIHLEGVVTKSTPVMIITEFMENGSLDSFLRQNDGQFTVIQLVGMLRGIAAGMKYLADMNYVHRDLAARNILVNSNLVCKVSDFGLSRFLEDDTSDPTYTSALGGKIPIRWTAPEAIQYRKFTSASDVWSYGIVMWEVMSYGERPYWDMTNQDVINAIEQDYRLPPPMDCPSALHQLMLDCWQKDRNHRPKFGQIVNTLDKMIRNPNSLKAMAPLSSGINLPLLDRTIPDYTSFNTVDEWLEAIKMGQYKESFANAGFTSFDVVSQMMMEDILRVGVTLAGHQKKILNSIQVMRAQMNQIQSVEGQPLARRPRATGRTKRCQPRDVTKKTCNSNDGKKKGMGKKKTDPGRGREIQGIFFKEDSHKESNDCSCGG

EPHB1 = EPHB1 (UniProt P54762); assay: as above
AncSZ = assay: as above
Fer (mouse) = assay: as above
MERTK = MERTK (UniProt Q12866); assay: as above
Chain of MERTK (Q12866 whole entry, looked up): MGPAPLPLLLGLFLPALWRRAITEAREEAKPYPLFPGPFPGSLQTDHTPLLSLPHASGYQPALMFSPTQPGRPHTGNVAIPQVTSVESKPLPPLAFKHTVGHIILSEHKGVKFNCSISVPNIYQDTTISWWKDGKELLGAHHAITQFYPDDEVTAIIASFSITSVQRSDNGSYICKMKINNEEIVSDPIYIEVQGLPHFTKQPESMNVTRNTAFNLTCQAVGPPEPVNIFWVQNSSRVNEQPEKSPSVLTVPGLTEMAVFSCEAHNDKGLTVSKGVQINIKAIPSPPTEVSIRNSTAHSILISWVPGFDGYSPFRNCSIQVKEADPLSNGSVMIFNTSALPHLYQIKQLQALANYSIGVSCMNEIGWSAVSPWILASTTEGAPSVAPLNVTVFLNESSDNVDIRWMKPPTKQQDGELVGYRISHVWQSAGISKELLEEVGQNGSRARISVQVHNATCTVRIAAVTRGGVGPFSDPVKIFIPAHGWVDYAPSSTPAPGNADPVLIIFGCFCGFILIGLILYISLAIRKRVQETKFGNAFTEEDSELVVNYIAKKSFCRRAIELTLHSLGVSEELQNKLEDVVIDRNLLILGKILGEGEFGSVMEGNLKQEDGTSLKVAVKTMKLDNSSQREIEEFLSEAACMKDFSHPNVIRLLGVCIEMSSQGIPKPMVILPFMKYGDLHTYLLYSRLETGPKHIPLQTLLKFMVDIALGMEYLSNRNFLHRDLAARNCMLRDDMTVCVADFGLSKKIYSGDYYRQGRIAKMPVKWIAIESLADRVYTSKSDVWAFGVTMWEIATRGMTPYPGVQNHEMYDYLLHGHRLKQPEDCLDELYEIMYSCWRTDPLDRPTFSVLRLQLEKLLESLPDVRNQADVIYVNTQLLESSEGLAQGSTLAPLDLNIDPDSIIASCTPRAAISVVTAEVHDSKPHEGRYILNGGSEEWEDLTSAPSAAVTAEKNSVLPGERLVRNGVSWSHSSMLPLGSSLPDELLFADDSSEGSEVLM

FGFR3 = FGFR3 (UniProt P22607); assay: as above
Chain of FGFR3 (P22607 whole entry, looked up): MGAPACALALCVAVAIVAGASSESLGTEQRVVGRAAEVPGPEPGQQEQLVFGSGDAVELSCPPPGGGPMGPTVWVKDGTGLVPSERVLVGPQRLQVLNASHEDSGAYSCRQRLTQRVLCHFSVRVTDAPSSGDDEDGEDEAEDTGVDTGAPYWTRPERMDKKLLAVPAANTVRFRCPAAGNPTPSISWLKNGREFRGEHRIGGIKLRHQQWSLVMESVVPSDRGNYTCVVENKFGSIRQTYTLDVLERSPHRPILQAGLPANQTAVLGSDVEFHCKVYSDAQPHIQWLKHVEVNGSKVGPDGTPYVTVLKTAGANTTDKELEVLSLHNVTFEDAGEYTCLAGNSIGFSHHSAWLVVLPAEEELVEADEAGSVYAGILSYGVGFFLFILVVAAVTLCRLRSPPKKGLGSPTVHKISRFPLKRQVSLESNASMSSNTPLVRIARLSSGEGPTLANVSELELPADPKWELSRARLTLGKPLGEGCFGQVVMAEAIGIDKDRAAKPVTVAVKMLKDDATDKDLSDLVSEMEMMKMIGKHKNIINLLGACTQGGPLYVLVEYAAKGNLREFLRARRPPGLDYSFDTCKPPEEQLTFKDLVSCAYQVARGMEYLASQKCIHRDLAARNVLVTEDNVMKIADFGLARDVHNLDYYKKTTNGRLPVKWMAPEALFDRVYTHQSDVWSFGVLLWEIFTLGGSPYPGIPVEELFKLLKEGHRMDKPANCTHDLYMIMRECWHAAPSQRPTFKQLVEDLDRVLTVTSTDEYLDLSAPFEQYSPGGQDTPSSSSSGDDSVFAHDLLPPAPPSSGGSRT

Fes = Fes (UniProt P07332); assay: as above
c-Abl (mouse) = assay: as above
FGFR1 = FGFR1 (UniProt P11362); assay: as above
c-Src SH2 = assay: SH2 binding enrichment of the phosphorylated peptide, bacterial display (enrichment ratio); higher = better substrate or ligand; peptides without Tyr show the background
SHP2-C SH2 = assay: as above
Grb2 SH2 = Grb2 SH2 (UniProt P62993); assay: as above
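Wherever SH2 binding enrichment of the phosphorylated peptide, bacterial display is given: peptide library displayed on the E. coli surface as eCPX fusions, selected cells deep-sequenced, score is each peptide's frequency after selection divided by its frequency in the input.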
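Wherever phosphorylation enrichment, bacterial display is given: 11-residue human phosphosite peptides and single-mutation variants displayed on the E. coli surface, counted by deep sequencing, each peptide's frequency after selection divided by its frequency in the unselected input library; frequency after pTyr selection over input frequency; kinase dosed for 20-30% of maximal phosphorylation in three min.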

Chain of Jak2 (O60674 whole entry, looked up): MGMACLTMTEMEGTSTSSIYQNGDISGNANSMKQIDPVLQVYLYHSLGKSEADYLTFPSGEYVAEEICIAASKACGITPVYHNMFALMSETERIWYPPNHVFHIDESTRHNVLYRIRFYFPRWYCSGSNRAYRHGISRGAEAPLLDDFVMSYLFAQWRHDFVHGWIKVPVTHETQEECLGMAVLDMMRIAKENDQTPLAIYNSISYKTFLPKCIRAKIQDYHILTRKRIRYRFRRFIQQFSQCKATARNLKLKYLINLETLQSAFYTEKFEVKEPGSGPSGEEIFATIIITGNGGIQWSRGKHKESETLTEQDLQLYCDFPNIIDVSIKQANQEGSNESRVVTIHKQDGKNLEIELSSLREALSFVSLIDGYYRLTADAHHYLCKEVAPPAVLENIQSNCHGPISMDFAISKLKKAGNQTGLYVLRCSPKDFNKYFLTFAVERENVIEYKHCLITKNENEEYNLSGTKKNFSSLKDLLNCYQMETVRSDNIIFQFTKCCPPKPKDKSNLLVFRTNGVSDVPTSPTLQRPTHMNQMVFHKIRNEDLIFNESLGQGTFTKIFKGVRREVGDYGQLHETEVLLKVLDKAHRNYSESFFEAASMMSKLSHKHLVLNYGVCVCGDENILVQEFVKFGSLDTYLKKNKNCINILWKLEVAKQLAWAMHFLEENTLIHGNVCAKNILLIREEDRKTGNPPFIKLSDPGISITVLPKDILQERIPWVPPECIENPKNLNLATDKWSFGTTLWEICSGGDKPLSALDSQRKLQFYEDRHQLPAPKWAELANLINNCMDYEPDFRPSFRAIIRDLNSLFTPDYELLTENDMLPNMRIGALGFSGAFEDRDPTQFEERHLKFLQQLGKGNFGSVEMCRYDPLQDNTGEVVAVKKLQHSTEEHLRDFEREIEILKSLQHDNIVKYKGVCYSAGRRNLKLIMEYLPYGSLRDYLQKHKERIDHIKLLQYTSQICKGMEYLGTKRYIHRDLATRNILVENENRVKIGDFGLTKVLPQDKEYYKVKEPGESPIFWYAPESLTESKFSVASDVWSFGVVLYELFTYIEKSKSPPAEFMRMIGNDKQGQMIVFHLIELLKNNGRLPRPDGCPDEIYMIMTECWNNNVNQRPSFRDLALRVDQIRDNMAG
Chain of Fyn (P06241 whole entry, looked up): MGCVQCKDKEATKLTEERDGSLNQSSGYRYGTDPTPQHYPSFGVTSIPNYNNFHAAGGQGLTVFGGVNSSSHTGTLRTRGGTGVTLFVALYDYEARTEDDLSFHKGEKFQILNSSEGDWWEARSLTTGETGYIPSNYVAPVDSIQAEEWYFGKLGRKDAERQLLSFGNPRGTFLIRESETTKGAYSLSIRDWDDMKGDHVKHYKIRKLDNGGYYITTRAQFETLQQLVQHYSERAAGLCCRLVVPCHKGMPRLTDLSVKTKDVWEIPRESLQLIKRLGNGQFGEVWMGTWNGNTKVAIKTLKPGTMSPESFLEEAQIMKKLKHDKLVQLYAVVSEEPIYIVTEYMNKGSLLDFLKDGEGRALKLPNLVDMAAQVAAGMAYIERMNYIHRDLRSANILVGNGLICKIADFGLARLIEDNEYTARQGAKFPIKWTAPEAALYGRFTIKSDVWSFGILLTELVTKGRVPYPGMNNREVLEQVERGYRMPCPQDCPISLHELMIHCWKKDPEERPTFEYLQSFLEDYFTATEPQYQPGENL
Chain of Hck (P08631 whole entry, looked up): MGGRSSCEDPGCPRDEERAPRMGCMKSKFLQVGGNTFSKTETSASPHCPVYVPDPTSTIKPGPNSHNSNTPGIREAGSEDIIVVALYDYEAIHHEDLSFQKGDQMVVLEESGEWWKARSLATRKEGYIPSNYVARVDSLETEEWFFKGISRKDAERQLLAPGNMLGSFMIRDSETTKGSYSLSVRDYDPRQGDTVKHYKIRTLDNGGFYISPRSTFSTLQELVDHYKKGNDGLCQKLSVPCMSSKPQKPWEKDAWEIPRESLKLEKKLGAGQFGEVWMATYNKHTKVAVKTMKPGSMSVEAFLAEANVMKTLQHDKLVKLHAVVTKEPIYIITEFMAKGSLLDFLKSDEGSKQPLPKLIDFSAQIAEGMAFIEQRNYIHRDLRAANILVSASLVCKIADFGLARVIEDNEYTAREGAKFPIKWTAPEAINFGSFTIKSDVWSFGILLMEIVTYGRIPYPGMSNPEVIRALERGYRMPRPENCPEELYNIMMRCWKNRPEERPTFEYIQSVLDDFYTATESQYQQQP

## VPLATYMRIFK [RPL21_Y30_YF]
Hck
  phosphorylation enrichment: 0.537
c-Src
  phosphorylation enrichment: 0.486
Jak2
  phosphorylation enrichment: 0.614
Fyn
  phosphorylation enrichment: 0.462
EPHB2
  phosphorylation enrichment: 0.425
EPHB1
  phosphorylation enrichment: 0.406
AncSZ
  phosphorylation enrichment: 0.733
Fer (mouse)
  phosphorylation enrichment: 0.406
MERTK
  phosphorylation enrichment: 0.35
FGFR3
  phosphorylation enrichment: 0.501
Fes
  phosphorylation enrichment: 0.881
c-Abl (mouse)
  phosphorylation enrichment: 0.477
FGFR1
  phosphorylation enrichment: 0.408
c-Src SH2
  SH2 binding enrichment: 0.535
SHP2-C SH2
  SH2 binding enrichment: 0.546
Grb2 SH2
  SH2 binding enrichment: 0.602

## VSNFNYFFHRE [KCNA1_Y413_YF]
Hck
  phosphorylation enrichment: 0.506
c-Src
  phosphorylation enrichment: 0.445
Jak2
  phosphorylation enrichment: 0.969
Fyn
  phosphorylation enrichment: 0.454
EPHB2
  phosphorylation enrichment: 0.509
EPHB1
  phosphorylation enrichment: 0.642
AncSZ
  phosphorylation enrichment: 1.12
Fer (mouse)
  phosphorylation enrichment: 0.472
MERTK
  phosphorylation enrichment: 0.45
FGFR3
  phosphorylation enrichment: 0.885
Fes
  phosphorylation enrichment: 1.22
c-Abl (mouse)
  phosphorylation enrichment: 0.831
FGFR1
  phosphorylation enrichment: 0.685
c-Src SH2
  SH2 binding enrichment: 0.79
SHP2-C SH2
  SH2 binding enrichment: 1.39
Grb2 SH2
  SH2 binding enrichment: 1.35

## VSRGRYRPEEC [B4GALT4_Y113_Q116E]
Hck
  phosphorylation enrichment: 0.522
c-Src
  phosphorylation enrichment: 0.562
Jak2
  phosphorylation enrichment: 0.561
Fyn
  phosphorylation enrichment: 0.472
EPHB2
  phosphorylation enrichment: 0.51
EPHB1
  phosphorylation enrichment: 0.443
AncSZ
  phosphorylation enrichment: 0.692
Fer (mouse)
  phosphorylation enrichment: 0.52
MERTK
  phosphorylation enrichment: 0.614
FGFR3
  phosphorylation enrichment: 0.524
Fes
  phosphorylation enrichment: 0.512
c-Abl (mouse)
  phosphorylation enrichment: 0.568
FGFR1
  phosphorylation enrichment: 0.439
c-Src SH2
  SH2 binding enrichment: 0.428
SHP2-C SH2
  SH2 binding enrichment: 0.465
Grb2 SH2
  SH2 binding enrichment: 0.699

## VSTAVYKRFAS [BEST1_Y148_P152A]
Hck
  phosphorylation enrichment: 0.511
c-Src
  phosphorylation enrichment: 0.555
Jak2
  phosphorylation enrichment: 0.725
Fyn
  phosphorylation enrichment: 0.449
EPHB2
  phosphorylation enrichment: 0.647
EPHB1
  phosphorylation enrichment: 0.693
AncSZ
  phosphorylation enrichment: 0.715
Fer (mouse)
  phosphorylation enrichment: 0.398
MERTK
  phosphorylation enrichment: 0.489
FGFR3
  phosphorylation enrichment: 0.48
Fes
  phosphorylation enrichment: 0.77
c-Abl (mouse)
  phosphorylation enrichment: 0.716
FGFR1
  phosphorylation enrichment: 0.507
c-Src SH2
  SH2 binding enrichment: 0.49
SHP2-C SH2
  SH2 binding enrichment: 0.681
Grb2 SH2
  SH2 binding enrichment: 0.644

## VSVVDYVEPSP [TXNRD2_Y70_A66S]
Hck
  phosphorylation enrichment: 0.565
c-Src
  phosphorylation enrichment: 0.489
Jak2
  phosphorylation enrichment: 0.725
Fyn
  phosphorylation enrichment: 0.494
EPHB2
  phosphorylation enrichment: 0.547
EPHB1
  phosphorylation enrichment: 0.595
AncSZ
  phosphorylation enrichment: 1.21
Fer (mouse)
  phosphorylation enrichment: 0.521
MERTK
  phosphorylation enrichment: 0.485
FGFR3
  phosphorylation enrichment: 0.629
Fes
  phosphorylation enrichment: 1.05
c-Abl (mouse)
  phosphorylation enrichment: 0.576
FGFR1
  phosphorylation enrichment: 0.804
c-Src SH2
  SH2 binding enrichment: 0.58
SHP2-C SH2
  SH2 binding enrichment: 0.757
Grb2 SH2
  SH2 binding enrichment: 0.888

## VTQEQYELFCE [CBL_Y368_YF]
Hck
  phosphorylation enrichment: 0.646
c-Src
  phosphorylation enrichment: 0.744
Jak2
  phosphorylation enrichment: 1.54
Fyn
  phosphorylation enrichment: 0.599
EPHB2
  phosphorylation enrichment: 0.848
EPHB1
  phosphorylation enrichment: 0.86
AncSZ
  phosphorylation enrichment: 1.4
Fer (mouse)
  phosphorylation enrichment: 0.737
MERTK
  phosphorylation enrichment: 0.624
FGFR3
  phosphorylation enrichment: 0.957
Fes
  phosphorylation enrichment: 1.24
c-Abl (mouse)
  phosphorylation enrichment: 3.12
FGFR1
  phosphorylation enrichment: 0.543
c-Src SH2
  SH2 binding enrichment: 0.668
SHP2-C SH2
  SH2 binding enrichment: 0.747
Grb2 SH2
  SH2 binding enrichment: 0.943

## VTSLKYSTPPF [BRIP1_Y916_S919P_YF]
Hck
  phosphorylation enrichment: 0.52
c-Src
  phosphorylation enrichment: 0.436
Jak2
  phosphorylation enrichment: 0.599
Fyn
  phosphorylation enrichment: 0.472
EPHB2
  phosphorylation enrichment: 0.493
EPHB1
  phosphorylation enrichment: 0.342
AncSZ
  phosphorylation enrichment: 0.607
Fer (mouse)
  phosphorylation enrichment: 0.38
MERTK
  phosphorylation enrichment: 0.457
FGFR3
  phosphorylation enrichment: 0.517
Fes
  phosphorylation enrichment: 0.841
c-Abl (mouse)
  phosphorylation enrichment: 0.595
FGFR1
  phosphorylation enrichment: 0.491
c-Src SH2
  SH2 binding enrichment: 0.492
SHP2-C SH2
  SH2 binding enrichment: 0.56
Grb2 SH2
  SH2 binding enrichment: 0.929

## VVFIKYLPEWT [PSEN1_Y240_L235V]
Hck
  phosphorylation enrichment: 0.44
c-Src
  phosphorylation enrichment: 0.414
Jak2
  phosphorylation enrichment: 1.22
Fyn
  phosphorylation enrichment: 0.335
EPHB2
  phosphorylation enrichment: 0.532
EPHB1
  phosphorylation enrichment: 0.595
AncSZ
  phosphorylation enrichment: 1.01
Fer (mouse)
  phosphorylation enrichment: 0.538
MERTK
  phosphorylation enrichment: 0.343
FGFR3
  phosphorylation enrichment: 0.773
Fes
  phosphorylation enrichment: 1.23
c-Abl (mouse)
  phosphorylation enrichment: 0.81
FGFR1
  phosphorylation enrichment: 0.424
c-Src SH2
  SH2 binding enrichment: 1.04
SHP2-C SH2
  SH2 binding enrichment: 1.64
Grb2 SH2
  SH2 binding enrichment: 1.64

## VVQGLYKSMPK [KBTBD2_Y250]
Hck
  phosphorylation enrichment: 0.438
c-Src
  phosphorylation enrichment: 0.403
Jak2
  phosphorylation enrichment: 0.516
Fyn
  phosphorylation enrichment: 0.34
EPHB2
  phosphorylation enrichment: 0.477
EPHB1
  phosphorylation enrichment: 0.386
AncSZ
  phosphorylation enrichment: 0.53
Fer (mouse)
  phosphorylation enrichment: 0.328
MERTK
  phosphorylation enrichment: 0.532
FGFR3
  phosphorylation enrichment: 0.537
Fes
  phosphorylation enrichment: 0.611
c-Abl (mouse)
  phosphorylation enrichment: 0.492
FGFR1
  phosphorylation enrichment: 0.384
c-Src SH2
  SH2 binding enrichment: 0.429
SHP2-C SH2
  SH2 binding enrichment: 0.79
Grb2 SH2
  SH2 binding enrichment: 0.752

## WEQELYSQLVF [WAS_Y102_YF]
Hck
  phosphorylation enrichment: 7.88
c-Src
  phosphorylation enrichment: 6.47
Jak2
  phosphorylation enrichment: 1.38
Fyn
  phosphorylation enrichment: 8.54
EPHB2
  phosphorylation enrichment: 11.6
EPHB1
  phosphorylation enrichment: 8.61
AncSZ
  phosphorylation enrichment: 2.24
Fer (mouse)
  phosphorylation enrichment: 14.4
MERTK
  phosphorylation enrichment: 8.62
FGFR3
  phosphorylation enrichment: 4.51
Fes
  phosphorylation enrichment: 2.71
c-Abl (mouse)
  phosphorylation enrichment: 1.81
FGFR1
  phosphorylation enrichment: 4.85
c-Src SH2
  SH2 binding enrichment: 0.688
SHP2-C SH2
  SH2 binding enrichment: 0.818
Grb2 SH2
  SH2 binding enrichment: 0.876

## WFPSTYVEEDE [VAV3_Y842]
Hck
  phosphorylation enrichment: 0.741
c-Src
  phosphorylation enrichment: 0.549
Jak2
  phosphorylation enrichment: 1.42
Fyn
  phosphorylation enrichment: 0.51
EPHB2
  phosphorylation enrichment: 0.656
EPHB1
  phosphorylation enrichment: 0.789
AncSZ
  phosphorylation enrichment: 1.43
Fer (mouse)
  phosphorylation enrichment: 0.638
MERTK
  phosphorylation enrichment: 0.454
FGFR3
  phosphorylation enrichment: 0.81
Fes
  phosphorylation enrichment: 1.5
c-Abl (mouse)
  phosphorylation enrichment: 0.875
FGFR1
  phosphorylation enrichment: 0.636
c-Src SH2
  SH2 binding enrichment: 0.941
SHP2-C SH2
  SH2 binding enrichment: 0.768
Grb2 SH2
  SH2 binding enrichment: 0.743

## WGLRSYYETSK [MAGED2_Y448]
Hck
  phosphorylation enrichment: 0.448
c-Src
  phosphorylation enrichment: 0.298
Jak2
  phosphorylation enrichment: 0.972
Fyn
  phosphorylation enrichment: 0.4
EPHB2
  phosphorylation enrichment: 0.549
EPHB1
  phosphorylation enrichment: 0.754
AncSZ
  phosphorylation enrichment: 0.958
Fer (mouse)
  phosphorylation enrichment: 0.464
MERTK
  phosphorylation enrichment: 0.298
FGFR3
  phosphorylation enrichment: 0.733
Fes
  phosphorylation enrichment: 1.12
c-Abl (mouse)
  phosphorylation enrichment: 0.661
FGFR1
  phosphorylation enrichment: 0.508
c-Src SH2
  SH2 binding enrichment: 1.03
SHP2-C SH2
  SH2 binding enrichment: 0.775
Grb2 SH2
  SH2 binding enrichment: 0.809

## WIPIQYLIISE [NOG_Y222_P223L]
Hck
  phosphorylation enrichment: 0.573
c-Src
  phosphorylation enrichment: 0.457
Jak2
  phosphorylation enrichment: 1.2
Fyn
  phosphorylation enrichment: 0.474
EPHB2
  phosphorylation enrichment: 0.723
EPHB1
  phosphorylation enrichment: 0.624
AncSZ
  phosphorylation enrichment: 1.2
Fer (mouse)
  phosphorylation enrichment: 0.666
MERTK
  phosphorylation enrichment: 0.436
FGFR3
  phosphorylation enrichment: 0.838
Fes
  phosphorylation enrichment: 1.43
c-Abl (mouse)
  phosphorylation enrichment: 0.858
FGFR1
  phosphorylation enrichment: 0.58
c-Src SH2
  SH2 binding enrichment: 0.923
SHP2-C SH2
  SH2 binding enrichment: 1.12
Grb2 SH2
  SH2 binding enrichment: 1.21

## WKEIEYEVVPD [CPS1_Y634_R638P]
Hck
  phosphorylation enrichment: 0.559
c-Src
  phosphorylation enrichment: 0.479
Jak2
  phosphorylation enrichment: 1.18
Fyn
  phosphorylation enrichment: 0.483
EPHB2
  phosphorylation enrichment: 0.961
EPHB1
  phosphorylation enrichment: 0.636
AncSZ
  phosphorylation enrichment: 1.43
Fer (mouse)
  phosphorylation enrichment: 0.554
MERTK
  phosphorylation enrichment: 0.494
FGFR3
  phosphorylation enrichment: 0.774
Fes
  phosphorylation enrichment: 1.18
c-Abl (mouse)
  phosphorylation enrichment: 0.639
FGFR1
  phosphorylation enrichment: 0.7
c-Src SH2
  SH2 binding enrichment: 0.48
SHP2-C SH2
  SH2 binding enrichment: 0.861
Grb2 SH2
  SH2 binding enrichment: 0.837
